Consider 3 substances from PMC4407741.

The target in this test is soluble human neonatal Fc receptor (shFcRn; FcRn heavy chain ectodomain / beta2-microglobulin heterodimer) (UniProt P55899+P61769). Put plainly: SPR (BIAcore 3000). To be noted: 25°C, 150 mM NaCl, HBS-P: 10 mM HEPES at pH 6.0 and pH 7.5 (same buffer at both pH).

By Kd is commonly meant the concentration at which binding is half-saturated. A word on the koff: it is the rate constant with which the complex falls apart. A higher koff goes with a short-lived complex. By kon is commonly meant the second-order rate constant of association. For the setting “pH 6.0”, “DX-2504 (clone M161-B04), fully human anti-FcRn IgG1 Affinity-matured heavy-chain CDR variant of DX-2500/M90-F11 (substitutions not printed)” had an equilibrium dissociation constant (Kd) of 1.5 nM, a koff of 0.00035 s⁻¹ and an association rate constant (kon) of 240000 M⁻¹ s⁻¹. Where the note is “pH 7.5”, this substance showed a dissociation constant Kd of 1.9 nM, an off-rate (koff) of 0.00028 s⁻¹ and an association rate constant (kon) of 150000 M⁻¹ s⁻¹.
Take “DX-2507, fully human anti-FcRn IgG1 (variant of DX-2504) relative to DX-2504: LC-CDR3 Cys->Ala (position number not printed); C-terminal Lys deleted”: for the setting “pH 6.0”, the Kd came to 1.8 nM, the off-rate (koff) stood at 0.00024 s⁻¹ and the on-rate (kon) worked out at 130000 M⁻¹ s⁻¹. Besides, under “pH 7.5”, the dissociation constant Kd is 2 nM, the koff is 0.00024 s⁻¹ and the kon worked out at 100000 M⁻¹ s⁻¹.
“DX-2500 (germlined parental clone M90-F11), fully human anti-FcRn IgG1 germlined relative to M90-F11 (changes not printed)”: the off-rate (koff) (pH 6.0) amounted to 0.0177 s⁻¹ and the off-rate constant (koff) (pH 7.4) turned out to be 0.0752 s⁻¹.
